The results in this text go back to patent publication US20220339099A1 (published 2022).

The target in the experiment is T1, human IL-1 type 1 receptor (IL-1R1) (human, UniProt P14778 18-336, limits assumed).
T1 construct: SPR reagent; also called IL-1RI; interleukin-1 type I receptor
T1 sequence (looked up): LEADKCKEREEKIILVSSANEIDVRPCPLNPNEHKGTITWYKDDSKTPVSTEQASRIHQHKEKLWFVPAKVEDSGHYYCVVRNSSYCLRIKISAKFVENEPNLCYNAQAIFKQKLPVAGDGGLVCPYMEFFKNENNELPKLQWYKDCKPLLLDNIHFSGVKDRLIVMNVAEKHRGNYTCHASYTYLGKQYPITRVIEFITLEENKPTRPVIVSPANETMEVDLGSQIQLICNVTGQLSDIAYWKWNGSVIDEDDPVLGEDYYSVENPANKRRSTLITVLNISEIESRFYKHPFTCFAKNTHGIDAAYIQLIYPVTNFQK
Put plainly: surface plasmon resonance.

B1: rhIL-1α (recombinant human interleukin-1 alpha) (ligand, UniProt P01583 113-271, looked up)
chain: SAPFSFLSNVKYNFMRIIKYEFILNDALNQSIIRANDQYLTAAALHNLDEAVKFDMGAYKSSKDDAKITVILRISKTQLYVTAQDEDQPVLLKEMPEIPKTITGSETNLLFFWETHGTKNYFTSVAHPNLFIATKQDYWVCLAGGPPSITDFQILENQA
notes: also called rhlL-1α
B1: the Kd worked out at 547 nM, the koff was 0.00145 s⁻¹ and the kon turned out to be 2650 M⁻¹ s⁻¹.
